Measured values reported in patent publication US11708423B2, “Chimeric engulfment receptor molecules and methods of use” (CERO THERAPEUTICS, INC., priority 2017, dated 2023).

Experiments:
[1] = tested on: CER-transduced CD4+ T cells; assay: Mass cytometry (CyTOF) with viSNE marker analysis of CER-transduced CD4+ T cells; format: cell-based, human; conditions: CD4+ T cells after co-culture with E7 TCR CD8+ T cells and SCC152 cells
Description: CD4+ T cells were transduced with lentiviral vector comprising CER104, CER116, or CER117 nucleic acid. CER104 (SEQ ID NO:133) comprises a Tim4 binding domain, Tim4 transmembrane domain, and an engulfment signaling domain comprising a primary engulfment signaling domain comprising a TLR8 signaling domain and a secondary engulfment signaling domain comprising a DAP12 signaling domain. CER116 (SEQ ID NO:143) comprises a Tim4 binding domain, Tim4 transmembrane domain, and an engulfment signaling domain comprising a primary engulfment signaling domain comprising a TRAF6 signaling domain and a secondary engulfment signaling domain comprising a TLR8 signaling domain. CER117 (SEQ ID NO:144) comprises a Tim4 binding domain, Tim4 transmembrane domain, and an engulfment signaling domain comprising a primary engulfment signaling domain comprising a TLR8 signaling domain and a secondary engulfment signaling domain comprising a TRAF6 signaling domain. CER-transduced CD4+ T cells were co-cultured with E7 TCR-transduced CD8+ T cells and HPV+SCC152 target cells and interrogated by mass cytometry (CyTOF) with viSNE for visualization of high dimensional single cell data (FIGS. 82-84). Intact CER-transduced CD4+ T cells are shown in plots displaying tSNE1 (horizontal) and tSNE2 (vertical) axes. 27 intracellular markers were used for the viSNE analysis. Each dot represents a single cell. […] Red represents high expression and blue represents low expression for each marker. Populations of CD4^+ T cells were generated using a clustering algorithm from all 27 markers and overlaid onto the viSNE map. […] Populations of CD4^+ T cells were generated using a clustering algorithm from all 18 markers and overlaid onto the viSNE map (FIG. 83A). […] Color plots by 18 intracellular markers (CD28, CCR7, CD45RA, PD1, CD127, Perforin, CD49d, CD85j, CD38, CD27, Granzyme B, CD57, CD25, CD69, CD154, CD56, HLA-DR, and TCRγδ) show the phenotype across viSNE ‘islands’ (FIG. 83B). Red represents high expression and blue represents low expression for each marker. Highlighted region with arrow indicates cells expressing T cell activation marker CD69. Populations of CD4^+ T cells were generated using a clustering algorithm from 18 intracellular markers (CD28, CCR7, CD45RA, PD1, CD127, Perforin, CD49d, CD85j, CD38, CD27, Granzyme B, CD57, CD25, CD69, CD154, CD56, HLA-DR, and TCRγ6) and overlaid onto the viSNE map. […] Color plots by the 18 intracellular markers show the phenotype across viSNE ‘islands’ (FIG. 84B). Red represents high expression and blue represents low expression for each marker. Highlighted region with arrow indicates cells expressing the naïve T cell marker CD45RA.

[2] = tested on: ALK+A549 cells; assay: Phagocytosis of ALK inhibitor treated A549 ALK+ cells by CER T cells (fluorescent microscopy); format: cell-based; conditions: 12 hours, CD4 T cells
Description: An ELM4-ALK translocation was introduced into A549 cells. […] CD4 T cells are modified to express CER104 or CER117 and labeled with CELLTRACE Violet. CER117 has a polypeptide sequence set forth in SEQ ID NO:144 and comprises a Tim4 binding domain, a Tim4 transmembrane domain, and an engulfment signaling domain comprising a primary engulfment signaling domain comprising a TLR8 signaling domain and a secondary engulfment signaling domain comprising a TRAF6 signaling domain. The ALK+A549 cells were then co-cultured with CER104- or CER117-expressing CD4+ T cells or Mock-transduced (vector only) T cells for 12 hours and images were obtained by fluorescent microscopy at 40× magnification (FIGS. 62A-E). White arrows indicate exemplary phagocytic events (pH rodo red cell targets within CELLTRACE Violet labeled CD4+ T cells).
CER123- and CER126-transduced CD4+ and CD8+ T cells were labeled with CELLTRACE Violet and co-cultured with the A549 ALK-positive cells. Co-cultured cells were imaged by fluorescent microscopy at 63× magnification after 12 hours (FIGS. 63A-F). White arrows indicate exemplary phagocytic events (pHrodo red targets within CELLTRACE Violet-labeled CD4 T cells).
Phagocytosis of Alectinib-treated ALK+A549 cells by CER-expressing T cells was also quantified. […] Bar graph in FIG. 64A represents quantification of percentage phagocytosis calculated as ((number of phagocytic target events)/(total number of effector cells))*100. Events were calculated from fluorescent 3×3 stitched images at 40×resolution after 12 hours of co-culture. Bar graph in FIG. 64B represents quantification of adjusted phagocytic index calculated as (median area ratio of target events in effector cells*phagocytosis). Events calculated from fluorescent 3×3 stitched images at 40×resolution after 12 hours of co-culture.
CER21−, CER27−, CER30−, CER108−, CER110−, CER112−, CER120−, CER123−, CER124−, CER126−, CER127−, or CER104-transduced CD4+ T cells were co-cultured with Alectinib-treated A549 cells at a 1:1 ratio for 12 hours. Phagocytic events were calculated from 3×3 stitched fluorescent microscopy images at 40X resolution. […] Images were obtained after 12 hours of co-culture. Yellow triangles indicate exemplary phagocytic events (pHrodo red targets within CELLTRACE violet labeled CD4+ T cells).
A time course study of phagocytic uptake of tumor cells by CER-transduced T cells was performed. CD4+ T cells were transduced with a lentiviral vector comprising CER122 nucleic acid. Mock-transduced (vector only) CD4+ T cells were used as control. CER122-transduced T cells were labeled with CELLTRACE violet and co-cultured with pHrodo red labeled A549 ALK+ lung adenocarcinoma cells. Fluorescent microscopy images were obtained at 4, 8, and 16 hours co-culture (FIG. 72C), and % phagocytosis (FIG. 72A) and phagocytic index (FIG. 72B) were calculated.

[3] = tested on: SCC152 cells; assay: Magnitude breadth of phagocytosis by CER-transduced CD4+ T cells; format: cell-based, human; conditions: 8 hours co-culture with CD8/E7 TCR T cells and SCC152 cells
Experimental: Various CER-modified CD4+ T cells were also evaluated for breadth of response to determine whether a particular CER confers a broad phagocytic response of low magnitude (e.g., 10% engulfment in 90% of cells) or a less frequent but strong phagocytic response (e.g., 90% engulfment in 10% of cells) in the host cells. CD8+ T cells were transduced with HPV16 E7 specific TCR as described in Example 5. CD4+ T cells were transduced with lentiviral vectors comprising a CER21, CER27, CER104, CER116, or CER117 nucleic acid. Mock-transduced (vector alone) CD4+ T cell were used as control. CD4+/CER+ and CD8+/E7 TCR+ T cells were stained with CELLTRACE violet. […] HPV16 E7 TCR transduced CD8+ T cells and selected CER transduced CD4+ T cells were mixed at a 1:1 ratio and co-cultured with SCC152 cells at a 1:1 ratio for 8 hours. Phagocytosis of target SCC152 cells by CER-transduced CD4+ T cells was analyzed by fluorescence microscopy. […] The horizontal axis represents the % area of CER-transduced CD4+ T cells having engulfment or % area of […]. This measure was rarely above 40% across CER types tested. The vertical axis represents the proportion of CER-transduced CD4+ T cells that were phagocytic. For CER104, about 20% of CER104-transduced CD4+ T cells have more than 10% engulfment. For CER117-transduced CD4+ T cells, less than 10% have more than 10% engulfment.

B1: CER117: Tim4 binding and transmembrane domains, TLR8 primary and TRAF6 secondary signaling domains; SEQ ID NO:144 (protein)
chain: MSKGLLLLWLVTELWWLYLTPAASEDTIIGFLGQPVTLPCHYLSWSQSRNSMCWGKGSCPNSKCNAELLRTDGTRIISRKSTKYTLLGKVQFGEVSLTISNTNRGDSGVYCCRIEVPGWFNDVKKNVRLELRRATTTKKPTTTTRPTTTPYVTTTTPELLPTTVMTTSVLPTTTPPQTLATTAFSTAVTTCPSTTPGSFSQETTKGSAFTTESETLPASNHSQRSMMTISTDIAVLRPTGSNPGILPSTSQLTTQKTTLTTSESLQKTTKSHQINSRQTILIIACCVGFVLMVLLFLAFLHHLFYWDVWFIYNVCLAKVKGYRSLSTSQTFYDAYISYDTKDASVTDWVINELRYHLEESRDKNVLLCLEERDWDPGLAIIDNLMQSINQSKKTVFVLTKKYAKSWNFKTAFYLALQRLMDENMDVIIFILLEPVLQHSQYLRLRQRICKSSILQWPDNPKAEGLFWQTLRNVVLTENDSRYNNMYVDSIKQYMSLLNCENSCGSSQSESDCCVAMASSCSAVTKDDSVGGTASTGNLSSSFMEEIQGYDVEFDPPLESKYECPICLMALREAVQTPCGHRFCKACIIKSIRDAGHKCPVDNEILLENQLFPDNFAKREILSLMVKCPNEGCLHKMELRHLEDHQAHCEFALMDCPQCQRPFQKFHINIHILKDCPRRQVSCDNCAASMAFEDKEIHDQNCPLANVICEYCNTILIREQMPNHYDLDCPTAPIPCTFSTFGCHEKMQRNHLARHLQENTQSHMRMLA
modifications: CER117 protein
[1]
  viSNE islands expressing intracellular marker IFNγ: enrichment of islands expressing the intracellular marker IFNγ
[2]; 1 μM Alectinib
  phagocytosis of A549 cells: phagocytosed A549 cells
[2]; 1 μM Crizotinib
  phagocytosis of A549 cells: phagocytosed A549 cells
[3]
  proportion of CER-transduced CD4+ T cells that have more than 10% engulfment: less than 10%
